Measurements taken from patent publication US20030211076A1, “Compositions and methods for treatment of proliferative disorders” (priority 2003, published 2003).

Assays:
[1] = target: T1, lysyl oxidase (LO) (Bos taurus, UniProt P33072); assay: LO-dependent H2O2 release, horseradish peroxidase-coupled fluorescence assay (substrate potential for LO); assay type: biochemical
T1 construct: per mature LO molecule (32 kD); from tissue
T1 sequence (P33072 170-418): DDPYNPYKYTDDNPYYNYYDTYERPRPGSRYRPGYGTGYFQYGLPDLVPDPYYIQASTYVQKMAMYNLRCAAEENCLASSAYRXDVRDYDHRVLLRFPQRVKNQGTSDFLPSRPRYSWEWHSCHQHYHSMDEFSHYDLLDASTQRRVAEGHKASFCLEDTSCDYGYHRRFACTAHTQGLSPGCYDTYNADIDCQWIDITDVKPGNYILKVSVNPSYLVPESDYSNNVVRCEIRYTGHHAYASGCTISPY
Procedure: The oxidation of a primary amine substrate by LO yields stoichiometric amounts of the corresponding aldehyde, hydrogen peroxide and ammonia, as shown: RCH2NH2+O2+H2O→RCHO+H2O2+NH3 (Kagan, 1986). To assess the substrate potential of FGF2, LO-dependent H2O2 release was monitored in assays using FGF2 as the sole substrate, using both the optimum temperature for LO activity of 55° C. and the physiological temperature of 37° C. (Trackman et al., 1981).
LO reaction with FGF2 as a substrate was assessed by a horseradish peroxidase-coupled fluorescence assay for H2O2 production. Reaction mixtures contained 0.25 mg of sodium homovanillate(HVA), 40 μg of HRP, and FGF2 at doses as indicated below in 0.05 M sodium borate buffer, pH 8.2, in a final volume of 2 ml. Assays were initiated by the addition of LO to reaction mixtures. H2O2 release was continuously monitored at excitation and emission wavelengths of 315 and 425 nm, respectively, at a constant temperature of 55° C. or 37° C., as specified, in the thermostatted cuvette chamber of an SLM Aminco Bowman Series 2 Luminescence Spectrometer. All activity data were corrected for background rates of H2O2 release determined in complete assay mixtures supplemented with 200 μM BAPN, an irreversible inhibitor of LO. In FIG. 4, solid curves represent the time course of H2O2 release at 55° C. in the reaction of 0.16 μM LO with 0.23 (a), 0.45 (b) and 0.9 (c) μM FGF2, respectively. Dotted curve (d) represents the time course of H2O2 release in the reaction of 0.16 μM LO with 0.9 μM FGF2 at 37° C. The same data were obtained from three separate experiments.
Using the fluorometric assay (Trackman et al., 1981) to monitor LO-dependent H2O2 release in vitro, the substrate potential of other growth factors was also assessed. Major members of the FGF family tested included FGF 1, 4, 5, 6, 7 and EGF (note: All factors are human recombinant forms purchased from R & D Systems, Inc., Minneapolis, Minn.).
A human recombinant disulfide-linked dimer of VEGF165 (MW: 42 kDa)(R & D Systems) as a sole substrate was tested by using the standard in vitro LO catalysis assays as described above for FIG. 4 (Trackman et al., 1981). Curves represent the time course of H2O2 release at 55° C. (a) or 37° C. (b) in the reaction of 0.10 μM LO with 0.45 μM VEGF165. All activity data were corrected for background rates of H2O2 release determined in complete assay mixtures supplemented with the same amounts of LO preincubated with 100 μM BAPN for 15 min at 37° C. The same data were obtained from three separate experiments.
The standard in vitro LO catalysis assays as described above for FIG. 4 (Trackman et al., 1981) using human recombinant PDGF-AB (R & D Systems) as a sole substrate was tested. […] In FIG. 19, curves represent the time course of H2O2 release at 55° C. (a) and 37° C. (b) in the reaction of 0.11 μM LO with 0.46 μM PDGF-AB, respectively. All activity data were corrected for background rates of H2O2 release determined in complete assay mixtures supplemented with the same amounts of LO preincubated with 100 μM BAPN for 15 minutes at 37° C. The same data were obtained from three separate experiments.
To analyze the substrate potential of Tat, the standard in vitro LO catalysis assays as described in FIG. 4 (Trackman et al., 1981) was performed at the optimum temperature of 55° C. and at the physiological temperature of 37° C. A recombinant Tat with 9 lysines in a total of 86 amino acids was used as a sole substrate. FIG. 12A represents a dose and temperature-dependent response. Curves represent the time course of H2O2 release at 55° C. (solid) or 37° C. (dotted) in the reaction of 0.10 μM LO with 0.22 (a and d), 0.43 (b and e) and 0.85 (c and f) μM Tat, respectively. All activity data were corrected for background rates of H2O2 release determined in complete assay mixtures supplemented with the same amounts of LO preincubated with 100 μM BAPN for 15 min at 37° C. […]

[2] = system: VEC on Matrigel; assay: Angiogenic response of Tat-stimulated VEC on Matrigel; assay type: cell-based; settings: 10 ng/ml Tat, 1 h preincubation and 3 h Tat exposure
Procedure: VEC grown on Matrigel, a solid gel of basement membrane proteins, rapidly align and form capillary-like structures providing a convenient in vitro model for angiogenesis studies (Albini et al., 1995; Grant et al.). Tat has been reported to enhance this in vitro morphogenesis of VEC consistent with its angiogenic property (Albini et al., 1995).
Cells (3×10^5) were plated on Matrigel-coated dishes. After 1 h incubation, various reagents were added to each culture. […] The following represents FIG. 15 phase-contrast microscopy: A, control; B, 10 ng ml^−1 Tat; C, 10 ng ml^−1 Tat+10 nM LO; D, 10 ng ml^−1 Tat+10 nM LO that was preincubated with 100 μM BAPN for 15 min at 370; E, 100 μM BAPN, alone, and F, 10 nM LO, alone.

[3] = system: porcine pulmonary arterial vascular endothelial cells (VEC); assay: Growth of Tat-stimulated vascular endothelial cells (cell counting, phase-contrast microscopy); assay type: cell-based; settings: 3 days, 5% FBS/M199
Procedure: Stimulation of cell proliferation of porcine pulmonary arterial vascular endothelial cells (VEC) was tested with LO-oxidized Tat. VEC (2×10^4) were plated and incubated overnight in 35 mm-dishes containing 2 ml 15% FBS/M199 medium, and then refed with 5% FBS/M199 with different treatment regimens as shown in A, B and C of FIG. 13. FIG. 13A represents a dose response of Tat-stimulated cell growth. Media were supplemented with Tat at the indicated doses and cells were incubated for additional 3 days. Cultures were refed once during the incubation period with fresh media supplemented with Tat at indicated doses. Cells were harvested by trypsinization and counted with a hemacytometer. FIG. 13B represents the LO inhibition of Tat-stimulated cell growth. FIG. 13C represents the effects of inactivation of LO by BAPN on Tat-stimulated cell growth. LO: 3 or 10 nM, Tat: 10 ng ml^−1, BAPN: 100 μM. Data represent the means (±sd) of three separate experiments each assessed with triplicate dishes.
Numerical and morphological alterations in Tat-stimulated VEC cells treated with LO were observed under phase-contrast microscopy (25'). Cells were cultured as described in FIG. 13 and treated with additives as indicated below. The following represents FIG. 14 phase contrast microscopy: A, control; B, 10 ng ml^−1Tat; C, 10 ng ml^−1 Tat+3 nM LO; D, 10 ng ml^−1 Tat+3 nM LO that was preincubated with 100 μM BAPN for 15 min at 370; E, 100 μM BAPN, alone, and F, 3 nM LO, alone.

What does the source list for “Tat: recombinant HIV-1 Tat with 9 lysines in a total of 86 amino acids”?
maximum release of H2O2 per mole of Tat ([1]; 37° C., 0.1 μM LO, 0.22 μM Tat): 4.85 moles of H2O2 per mole of Tat; maximum release of H2O2 per mole of Tat ([1]; 37° C., 0.1 μM LO, 0.43 μM Tat): 4.75 moles of H2O2 per mole of Tat; maximum release of H2O2 per mole of Tat ([1]; 37° C., 0.1 μM LO, 0.85 μM Tat): 4.80 moles of H2O2 per mole of Tat; H2O2 released per mole of Tat, time course ([1]; 37° C., 0.1 μM LO, 20 min): 4.05±0.05 moles of H2O2 released per mole of Tat; H2O2 released per mole of Tat, time course ([1]; 37° C., 0.1 μM LO, 30 min): 4.80±0.04 moles of H2O2 released per mole of Tat; maximum release of H2O2 per mole of Tat, average ([1]; 37° C., 0.1 μM LO, average over 0.22, 0.43 and 0.85 μM Tat): 4.80±0.05 moles of H2O2 per mole of Tat; molar ratio of H2O2 released per mole of Tat at the plateau ([1]; 55° C., 0.1 μM LO, 0.22 μM Tat): 8.42; molar ratio of H2O2 released per mole of Tat at the plateau ([1]; 55° C., 0.1 μM LO, 0.43 μM Tat): 8.88; molar ratio of H2O2 released per mole of Tat at the plateau ([1]; 55° C., 0.1 μM LO, 0.85 μM Tat): 9.31; molar ratio of H2O2 released per mole of Tat, mean±standard deviation ([1]; 55° C., 0.1 μM LO, mean over 0.22, 0.43 and 0.85 μM Tat): 8.87±0.45; substrate of LO (in words) ([1]; factor as sole substrate, LO-dependent H2O2 release in vitro): excellent substrate of LO; formation of capillary like structures [2]: facilitated the formation of capillary like structures; dose of maximum stimulation of cell proliferation [3]: 10 ng/mL
